Experimental data as given in patent US20200024330A1.

Legend:
Test in all cases: cell-based or functional assay
[1] = target: HIV-1 Env of isolate MGRM-AE-007 (HIV-1)
[2] = target: HIV-1 Env of isolate MGRM-AE-008 (HIV-1)
[3] = target: HIV-1 Env of isolate MGRM-AG-001 (HIV-1)
[4] = target: HIV-1 Env of isolate MGRM-AG-002 (HIV-1)
[5] = target: HIV-1 Env of isolate MGRM-AG-003 (HIV-1)
[6] = target: HIV-1 Env of isolate MGRM-AG-005 (HIV-1)
[7] = target: HIV-1 Env of isolate MGRM-AG-006 (HIV-1)
[8] = target: HIV-1 Env of isolate MGRM-AG-008 (HIV-1)
[9] = target: HIV-1 Env of isolate MGRM-AG-009 (HIV-1)
[10] = target: HIV-1 Env of isolate MGRM-AG-011 (HIV-1)
[11] = target: HIV-1 Env of isolate MGRM-AG-012 (HIV-1)
[12] = target: HIV-1 Env of isolate MGRM-AG-013 (HIV-1)
[13] = target: HIV-1 Env of isolate MGRM-G-025 (subtype G) (HIV-1)
[14] = target: aMLV envelope (negative control pseudovirus)
[15] = target: HIV-1 Env of isolate MGRM-AE-004 (HIV-1)
[16] = target: HIV-1 Env of isolate MGRM-AE-005 (HIV-1)
[17] = target: HIV-1 Env of isolate MGRM-AE-006 (HIV-1)
[18] = target: HIV-1 Env of isolate MGRM-F1-013 (HIV-1)
[19] = target: HIV-1 Env of isolate JRFL (HIV-1)
[20] = target: HIV-1 Env of isolate MGRM-Chronic-B-010 (HIV-1)
[21] = target: HIV-1 Env of isolate MGRM-Chronic-B-011 (HIV-1)
[22] = target: HIV-1 Env of isolate MGRM-Chronic-B-012 (HIV-1)
[23] = target: HIV-1 Env of isolate MGRM-Chronic-B-017 (HIV-1)
[24] = target: HIV-1 Env of isolate MGRM-Chronic-B-018 (HIV-1)
[25] = target: HIV-1 Env of isolate MGRM-Chronic-B-020 (HIV-1)
[26] = target: HIV-1 Env of isolate MGRM-Chronic-B-023 (HIV-1)
[27] = target: HIV-1 Env of isolate MGRM-Chronic-B-024 (HIV-1)

| Substance | IC50 [1] [µg/mL] | IC50 [2] [µg/mL] | IC50 [3] [µg/mL] | IC50 [4] [µg/mL] | IC50 [5] [µg/mL] | IC50 [6] [µg/mL] | IC50 [7] [µg/mL] | IC50 [8] [µg/mL] | IC50 [9] [µg/mL] | IC50 [10] [µg/mL] | IC50 [11] [µg/mL] | IC50 [12] [µg/mL] | neutralization IC50 [13] [µg/mL] | neutralization IC50 [14] [µg/mL] | further results |
| --- | --- | --- | --- | --- | --- | --- | --- | --- | --- | --- | --- | --- | --- | --- | --- |
| PGT-142 (4995_E20) (antibody) | 6.7 | 0.08 | 12.4 | 0.044 | > 50 | 0.383 | > 50 | 12.1 | > 50 | 0.081 | > 50 | 21.7 | > 50 | > 50 | – |
| PGT-143 (4980_N08) (antibody) | 13.6 | 0.135 | 18.9 | 0.076 | > 50 | 1.11 | > 50 | 34 | > 50 | 0.156 | > 50 | > 50 | > 50 | > 50 | – |
| PGT-144 (4970_K22) (antibody) | > 50 | 3.55 | > 50 | 7.78 | > 50 | > 50 | > 50 | > 50 | > 50 | 44.6 | > 50 | > 40 | > 50 | > 50 | – |
| PGV04 (antibody) | – | – | – | – | – | – | – | – | – | – | – | – | 1.61 | > 50 | IC50 (µg/mL), pseudovirus neutralization [15]: 0.183 µg/mL; IC50 (µg/mL), pseudovirus neutralization [16]: 0.051 µg/mL; IC50 (µg/mL), pseudovirus neutralization [17]: > 50 µg/mL; IC50 (µg/mL), pseudovirus neutralization [1]: 5.75 µg/mL; IC50 (µg/mL), pseudovirus neutralization [2]: 1.51 µg/mL; IC50 (µg/mL), pseudovirus neutralization [3]: 0.218 µg/mL; IC50 (µg/mL), pseudovirus neutralization [4]: 0.879 µg/mL; IC50 (µg/mL), pseudovirus neutralization [5]: 0.058 µg/mL; IC50 (µg/mL), pseudovirus neutralization [6]: 0.027 µg/mL; IC50 (µg/mL), pseudovirus neutralization [7]: 1.23 µg/mL; IC50 (µg/mL), pseudovirus neutralization [8]: 2.48 µg/mL; IC50 (µg/mL), pseudovirus neutralization [9]: 0.148 µg/mL; IC50 (µg/mL), pseudovirus neutralization [10]: 0.071 µg/mL; IC50 (µg/mL), pseudovirus neutralization [11]: 0.04 µg/mL; IC50 (µg/mL), pseudovirus neutralization [12]: 0.03 µg/mL; IC50 (µg/mL), pseudovirus neutralization [18]: 0.084 µg/mL |
| VRC01 (antibody) | 0.835 | 1.72 | 0.228 | 0.95 | 0.043 | 0.091 | 0.344 | 0.124 | > 50 | 0.084 | 0.031 | 0.197 | 0.292 | > 50 | IC50 [19]: 0.034 µg/mL; neutralization IC50 [20]: 0.156 µg/mL; neutralization IC50 [21]: 0.587 µg/mL; neutralization IC50 [22]: 1.03 µg/mL; neutralization IC50 [23]: 0.141 µg/mL; neutralization IC50 [24]: 0.328 µg/mL; neutralization IC50 [25]: 0.424 µg/mL; neutralization IC50 [26]: 0.275 µg/mL; neutralization IC50 [27]: 0.377 µg/mL; IC50, pseudovirus neutralization [18]: 0.17 µg/mL |
